Assay [1] relates to THP1 cells. Briefly: Internalization of pHrodo red labelled bi-specific Ab in THP1 cells. Type of assay: cell-based. The following applies: pHrodo red labelled Ab 1 ug/ml 30 min; differentiated THP1, LPS then ATP; confocal; FIG. 35A. The procedure: Internalization of Inflamab—see FIG. 35. THP1 cells, for FIG. 35, were cultured in 96-well plates at 100,000cells/200 ul complete media. Differentiation of THP1 cells was induced by PMA (100 ug/ml for 72 hours). Following 24 hours of rest, differentiated THP1 cells were stimulated with LPS (1 ug/ml) for 3 hours, treated with a pHrodo red labelled IL-1r/NLRP3 Ab (1 ug/ml) for 30 minutes, followed by ATP (5 mM) for 1 hour. The internalization of the Ab was tracked using a pHrodo red labelled bi-specific Ab that only fluoresces when internalized.

Assay [2] has as its system Bone Marrow Derived Macrophages (BMDMs). Put plainly: Inflammasome activation assay in bone marrow derived macrophages (cytokine ELISA). The following applies: murine BMDMs, FIG. 36. Type of assay: cell-based, C57BL/6 mice. The method, then:
Bone marrow cells were isolated from the tibias and femurs of C57BL/6 mice. To obtain bone marrow-derived dendritic cells (BMDCs), cells were cultured for 7 days at 37° C. and 5% CO2 in Iscove's modified Dulbecco's medium (IMDM) supplemented with 8% fetal calf serum (FCS), 1% penicillin/streptomycin (GE Healthcare Life Sciences, Marlborough, MA, USA), 1% glutamax (Thermo Fisher Scientific, Waltham, MA, USA) and 20 μM β-mercaptoethanol (Sigma-Aldrich, St. Louis, MO, USA) in the presence of 20 ng/mL gm-CSF (Preprotech, Rocky Hill, NJ, USA). To obtain bone marrow-derived macrophages (BMDMs), cells were cultured for 7 days in Roswell Park Memorial Institute medium (RPMI) supplemented with 10% FCS, 100 U/mL penicillin/streptomycin, 0.1 mM nonessential amino acids, 1% pyruvate and 2 mM L-glutamine (Thermo Fisher Scientific) in the presence of 20 ng/mL m-CSF (eBioscience)
For in vitro stimulation, 0.1×10^6 cells per well were added to 96-well flat-bottom plates (Greiner Bio-One, Kremsmunster, Austria). Cells were first primed with LPS (50 ng/mL) for 2 hours, after which cholesterol crystals (2 mg/mL) were added in the presence or absence of MCC950 (1 μM, Adipogen, San Diego, US) for an additional 4 hours. […]
InflaMab inhibits IL-1beta secretion in BMDMs—see FIG. 36. […] IL-1β release was measured in the supernatant by ELISA.

Assay [3] has as its system apoE−/− mice. Briefly: In vivo LPS challenge, serum IL-1β and TNF-α by ELISA. The conditions noted are these: LPS 50 μg/kg i.v., FIG. 37. The procedure: Female apoE−/− mice were fed a Western-type diet containing 0.25% cholesterol and 15% cacao butter (SDS, Sussex, UK) starting 1 week prior to treatment and throughout the experiment. Diet and water were provided ad libitum. After 1 week of diet feeding, mice were injected intraperitoneally with PBS or InflaMab (100 μg or 200 μg) administrated on day 10 and day 14. After 2 weeks of diet and a 1-week treatment mice were challenged intravenously with LPS (50 μg/kg, Salmonella minnesota R595, List Biological Laboratories Inc.) and blood was collected after 0.5, 1, 2 and 4 hours. After 4 hours mice were sacrificed and serum levels of IL-1β and TNF-α were measured by ELISA.
IL-1beta, but not TNFalpha, is inhibited in vivo via LPS challenge—see FIG. 37. Female apoE−/− mice, after 1 week on WTD, were injected intraperitoneally with PBS or InflaMab (100 μg or 200 μg) administrated on day 10 and day 14. After 2 weeks of diet and a 1-week treatment mice were challenged intravenously with LPS (50 μg/kg) and (a) IL-1β and (b) TNF-α were measured by ELISA.

This note sets out measurements from US12264201B2, “Bispecific antibody targeting IL-1R1 and NLPR3” (University of Ulster, priority 2018, dated 2025).

B1: InflaMab: 210 kDa bispecific mouse antibody to IL-1R1 and NLRP3; light chain SEQ ID NO: 57, heavy chain with scFv SEQ ID NO: 59 (protein)
light: MVSSAQFLGLLLLCFQGTRCDIVMTQSPATLSVTPGDRVSLSCRASQSISDYLSWYQQRSHESPRLIIKYASQSISGIPSRFSGSGSGSDFTLSINSVEPEDVGVYYCQHGHSFPLTFGSGTKLELKRADAAPTVSIFPPSSEQLTSGGASVVCFLNNFYPKDINVKWKIDGSERQNGVLNSWTDQDSKDSTYSMSSTLTLTKDEYERHNSYTCEATHKTSTSPIVKSFNRNEC
heavy: MGWTLVFLFLLSVTAGVHSQIQLVQSGPELRKPGETVRISCKASGYPFTTAGLQWVQKMSGKGLKWIGWMNTQSEVPKYAEEFKGRIAFSLETAASTAYLQINNLKTEDTATYFCAKSVYFNWRYFDVWGAGTTVTVSSAKTTAPSVYPLAPVCGDTTGSSVTLGCLVKGYFPEPVTLTWNSGSLSSGVHTFPAVLQSDLYTLSSSVTVTSSTWPSQSITCNVAHPASSTKVDKKIEPRGPTIKPCPPCKCPAPNLLGGPSVFIFPPKIKDVLMISLSPIVTCVVVDVSEDDPDVQISWFVNNVEVHTAQTQTHREDYNSTLRVVSALPIQHQDWMSGKEFKCKVNNKDLPAPIERTISKPKGSVRAPQVYVLPPPEEEMTKKQVTLTCMVTDFMPEDIYVEWTNNGKTELNYKNTEPVLDSDGSYFMYSKLRVEKKNWVERNSYSCSVVHEGLHNHHTTKSFSRTPGKGSAGGSGGDSEVQLVESGGGLVKPGGSLKLSCAASGFTFSDYYMYWVRQTPEKRLEWVATISDGGTYTYYPDSVKGRFTISRDNAKNNLYLQMNSLKSEDTAMYYCARGWVSTMVKLLSSFPYWGQGTLVTVSAGGGGSGGGGSGGGGSQAVVTQESALTTSPGETVTLTCRSSTGAVTTSNYANWVQEKPDHLFTGLIGGTNNRAPGVPARFSGSLIGDKAALTITGAQTEDEAIYFCALWYSNYWVFGGGTKLTVLGQPK
Turning to B1, in assay [1], the “internalization of the Ab” value is “shows the internalization”. Further, the “secretion of TNFalpha” value in assay [2] (same cells, specificity) is reported as “no effect”. Moreover, in assay [2] (LPS 50 ng/ml, Inflamab 30 min, Alum 50 μg/ml 1 h, ELISA), the IL-1beta secretion result is reported as “dose-dependently inhibit”. For the same molecule, the “IL-1beta secretion in vivo” value in assay [3] (female apoE−/− mice on Western-type diet, 100 μg or 200 μg i.p. day 10 and 14) was “specifically inhibit”. Besides, the “secretion of TNFalpha in vivo” value in assay [3] (female apoE−/− mice, 100 μg or 200 μg i.p., specificity) is “no effect”.
